From article PMC4259407, “HAX1 regulates E3 ubiquitin ligase activity of cIAPs by promoting their dimerization” (Oncotarget, 2014)

Target: T1, full-length His-tagged cIAP2 (UniProt Q13489 1-604)
T1 construct: also called His-cIAP2; source: E. coli BL21 (DE3), purified (Ni-NTA)
Test: pull-down; in vitro dimerization assay: purified His-cIAP2 and GST-BUCR with HAX1 or HAX1N (0, 0.5 and 5 μg), preincubated at 4°C for 30 min; Ni-NTA agarose, 4 h at 4°C; 20 mM HEPES, 100 mM NaCl, 5% glycerol, 0.1 mg BSA, 0.1% Triton X-100; blots with anti-His and anti-GST; more complex with HAX1, no effect of HAX1N
Settings: both partners purified

B1: GST-tagged cIAP2 fragment (GST-BUCR) (domain or fragment, UniProt Q13489 251-604, looked up)
chain: SMQTHAARFKTFFNWPSSVLVNPEQLASAGFYYVGNSDDVKCFCCDGGLRCWESGDDPWVQHAKWFPRCEYLIRIKGQEFIRQVQASYPHLLEQLLSTSDSPGDENAESSIIHFEPGEDHSEDAIMMNTPVINAAVEMGFSRSLVKQTVQRKILATGENYRLVNDLVLDLLNAEDEIREEERERATEEKESNDLLLIRKNRMALFQHLTCVIPILDSLLTAGIINEQEHDVIKQKTQTSLQARELIDTILVKGNIAATVFRNSLQEAEAVLYEHLFVQQDIKYIPTEDVSDLPVEEQLRRLQEERTCKVCMDKEVSIVFIPCGHLVVCKDCAPSLRKCPICRSTIKGTVRTFLS
notes: cIAP2 residues 251-604 (printed as BUCT in the methods, BUCR in the results), cloned into the GST-tagged vector pGEX-6p-1; also called BUCT (a.a 251–604); source: E. coli BL21 (DE3), purified (glutathione-Sepharose 4B)
  binding result: binds
